Data taken from PMC3858243, “Escherichia coli Ribosomal Protein S1 Unfolds Structured mRNAs Onto the Ribosome for Active Translation Initiation”.

What was measured:
Test in all cases: EMSA; Not given in the material for EMSA, SPR and filter binding (buffer with monovalent ions and MgCl2; RNA renatured 90°C 1 min, ice, then 25°C 30 min)
[1] = target: ribosomal protein S1 wild type (Escherichia coli, UniProt P0AG67 1-557)
[2] = target: S1Δ3-6 (Escherichia coli, UniProt P0AG67 1-170); details: protein: recombinant; tags: C-terminal His6; label: 5' 32P; pseudoknot
[3] = target: S1Δ4-6 (Escherichia coli, UniProt P0AG67 1-279); details: protein: recombinant; tags: C-terminal His6; label: 5' 32P; pseudoknot

B1: mut-psk-rpsOSD (structured_RNA)
RNA: GGGAUCGCUGAAUUAGAGAUCGGCGUCCUUUCAUUCUAUAUAGUAAGGAGGUUAAAAUGUCUCUAAGU
B1 was tested, and the “apparent K (half saturation)” value [1] was roughly 447 nM, the binding result [2] was “no binding” and the binding signal [3] was 5 fold weaker than WT S1.
